From publication PMC4424056

Assays:
[1] = target: integrin αIIb cytoplasmic tail (αIIb CT, W988-E1008) (human) (UniProt P08514); assay: SPR
[2] = target: integrin αIIb cytoplasmic tail (αIIb CT, W988-E1008) (human) (UniProt P08514)

Chain of integrin αIIb cytoplasmic tail (αIIb CT, W988-E1008) (human) (P08514 1019-1039): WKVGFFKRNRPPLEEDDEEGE

- Kd [1]: 229 µM
- inhibition by FLNa-Ig21 of the PAC1 binding of WT αIIbβ3 in CHO cells [2]: 40%
Substance: filamin A immunoglobulin repeat 21 (FLNa-Ig21) (from UniProt P21333 2236-2330) (domain or fragment)
